Targets include DB_E203A (human, UniProt P03372 176-250, E203A); DB_D190A (human, UniProt P03372 176-250, D190A); DB_H196A (human, UniProt P03372 176-250, H196A); DB_R211A (human, UniProt P03372 176-250, R211A); DB_Y197A (human, UniProt P03372 176-250, Y197A); DB_S201A (human, UniProt P03372 176-250, S201A); DB_S193A (human, UniProt P03372 176-250, S193A); DB_K206A (human, UniProt P03372 176-250, K206A); DB_K210A (human, UniProt P03372 176-250, K210A); DB_AA (human, UniProt P03372 176-250, H196A;E203A).

Assay in all cases: ITC

DB_Y197A, sequence (P03372 176-250 Y197A): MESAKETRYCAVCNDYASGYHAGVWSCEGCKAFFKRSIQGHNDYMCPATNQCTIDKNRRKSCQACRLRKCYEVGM
DB_H196A, sequence (P03372 176-250 H196A): as the sequence (P03372 176-250 Y197A) above, with H21A, A22Y counted along it
DB_AA, sequence (P03372 176-250 H196A/E203A): as the sequence (P03372 176-250 Y197A) above, with H21A, A22Y, E28A counted along it
DB_S193A, sequence (P03372 176-250 S193A): as the sequence (P03372 176-250 Y197A) above, with S18A, A22Y counted along it
DB_K210A, sequence (P03372 176-250 K210A): as the sequence (P03372 176-250 Y197A) above, with A22Y, K35A counted along it
DB_K206A, sequence (P03372 176-250 K206A): as the sequence (P03372 176-250 Y197A) above, with A22Y, K31A counted along it
DB_S201A, sequence (P03372 176-250 S201A): as the sequence (P03372 176-250 Y197A) above, with A22Y, S26A counted along it
DB_E203A, sequence (P03372 176-250 E203A): as the sequence (P03372 176-250 Y197A) above, with A22Y, E28A counted along it
DB_R211A, sequence (P03372 176-250 R211A): as the sequence (P03372 176-250 Y197A) above, with A22Y, R36A counted along it
DB_D190A, sequence (P03372 176-250 D190A): as the sequence (P03372 176-250 Y197A) above, with D15A, A22Y counted along it

B1: ERE duplex (dsDNA)
DNA 1: CCCAGGTCACAGTGACCTGCG
DNA 2: CGCAGGTCACTGTGACCTGGG
B1: the Kd with DB_E203A amounted to 172 ± 48 nM; with DB_D190A it was 67 ± 6 nM; in the series with DB_H196A, 190 ± 24 nM; with DB_R211A, 745 ± 76 nM; with DB_Y197A, 316 ± 7 nM; with DB_S201A, 119 ± 9 nM. In addition, the Kd in the series with DB_S193A turned out to be 102 ± 10 nM; with DB_K206A, 313 ± 6 nM; with DB_K210A it was 326 ± 11 nM; with DB_AA it was 387 ± 90 nM.
